Values of other authors, collected in PMC10650157.

Experiments:
[1] = molecular target: apo-lactoferrin (Homo sapiens) (UniProt P02788)
[2] = molecular target: apo-transferrin (Homo sapiens) (UniProt P02787)
Chain of UniProt P02787 (P02787 20-698): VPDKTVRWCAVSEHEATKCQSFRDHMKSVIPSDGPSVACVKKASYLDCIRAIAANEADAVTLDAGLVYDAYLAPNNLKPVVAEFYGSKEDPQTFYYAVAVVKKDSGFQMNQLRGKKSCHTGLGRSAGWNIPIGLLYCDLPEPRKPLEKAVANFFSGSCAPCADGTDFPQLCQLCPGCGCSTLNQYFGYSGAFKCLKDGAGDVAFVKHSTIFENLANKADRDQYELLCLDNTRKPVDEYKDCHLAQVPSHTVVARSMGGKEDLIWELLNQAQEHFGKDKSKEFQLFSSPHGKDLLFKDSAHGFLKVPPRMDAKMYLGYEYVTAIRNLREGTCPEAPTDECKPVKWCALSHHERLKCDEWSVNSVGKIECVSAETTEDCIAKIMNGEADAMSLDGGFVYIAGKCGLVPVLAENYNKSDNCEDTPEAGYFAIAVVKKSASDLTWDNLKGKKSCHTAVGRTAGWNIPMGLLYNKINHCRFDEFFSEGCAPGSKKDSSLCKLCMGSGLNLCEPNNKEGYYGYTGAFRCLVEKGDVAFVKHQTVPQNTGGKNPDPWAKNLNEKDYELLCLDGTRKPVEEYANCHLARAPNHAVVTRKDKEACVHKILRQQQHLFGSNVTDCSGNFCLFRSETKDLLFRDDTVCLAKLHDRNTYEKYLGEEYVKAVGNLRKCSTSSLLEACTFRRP

Chain of UniProt P02788 (P02788 20-710): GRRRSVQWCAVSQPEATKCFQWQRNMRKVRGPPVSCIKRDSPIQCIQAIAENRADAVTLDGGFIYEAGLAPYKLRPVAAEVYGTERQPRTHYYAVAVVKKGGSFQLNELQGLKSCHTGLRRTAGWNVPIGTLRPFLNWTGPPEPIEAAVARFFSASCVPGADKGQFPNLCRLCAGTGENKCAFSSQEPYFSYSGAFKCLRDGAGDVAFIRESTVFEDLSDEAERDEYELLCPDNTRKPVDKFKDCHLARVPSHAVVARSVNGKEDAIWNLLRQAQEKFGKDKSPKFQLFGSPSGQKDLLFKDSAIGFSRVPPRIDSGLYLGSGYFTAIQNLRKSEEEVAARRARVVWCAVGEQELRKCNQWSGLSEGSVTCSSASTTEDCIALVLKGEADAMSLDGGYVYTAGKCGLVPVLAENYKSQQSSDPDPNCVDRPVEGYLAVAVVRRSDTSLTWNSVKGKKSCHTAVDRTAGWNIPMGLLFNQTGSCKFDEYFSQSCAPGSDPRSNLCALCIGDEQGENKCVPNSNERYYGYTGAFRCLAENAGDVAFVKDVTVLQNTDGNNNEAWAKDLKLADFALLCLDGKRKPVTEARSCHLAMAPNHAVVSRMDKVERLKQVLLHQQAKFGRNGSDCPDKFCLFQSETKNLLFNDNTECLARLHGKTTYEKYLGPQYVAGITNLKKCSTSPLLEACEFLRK

For Ceruloplasmin (from UniProt P00450), the Kd [1] is given as 7.4 µM and the Kd [2] is given as 51.3 µM.
